Reference: patent US20110212106A1, “HIV-1 NE[…] USES THEREOF” (priority 2010, published 2011)
Like-named read-outs stand apart in the source and are kept apart here.

Tests used:
[1] = tested on: HIV-1 pseudoviruses in TZM-bl cells
[2] = In vivo administration in macaques
Excerpt: Specificity: V3 loop. Pepscan analysis identified the epitope which is very conserved in the tip of V3 of gp120. It includes 4 residues involved in co-receptor (CCR5 or CXCR4) binding. Also HGN194 has accessibility problems (Fab fragment and single chain antibody may work better). Neutralizes most Tier 1 isolates (they are more sensitive isolates since the epitope is more accessible).

[3] = tested on: HIV-1 pseudoviruses in HOS-CD4-CCR5 cells
Description: To measure the neutralization activity of the isolated mAbs, luciferase-encoding virions pseudotyped with the desired HIV-1 Env proteins were used in a single-cycle infectivity assay, as previously described (Gorny M K, et al. (2002) J Virol 76: 9035-9045). Briefly, appropriate dilutions of the virion-containing culture supernatants were pre-incubated at 37° C. for 1 h with mAbs at various concentrations. The virus-mAb mixtures were added to HOS-CD4-CCR5 cells and incubated for 3 days at 37° C. A similar protocol was used for supernatants screening using TZM-bl cells (Li M, et al. (2006) J Virol 80: 11776-11790). The cells were then lysed with Britelite reagent (Perkin-Elmer) and the relative light units in the cell lysates were determined on a luminometer microplate reader (Veritas, Turner Biosystems). The 50% inhibitory dose (IC50) was defined as the sample concentration at which relative luminescence units were reduced 50% compared to virus control wells.
The neutralizing activity of the mAbs was measured using 20 pseudotyped HIV-1 primary isolate envs characterized by different sensitivity to neutralization (Li M, et al. (2005) J Virol 79: 10108-10125; Li M, et al. (2006) J Virol 80: 11776-11790). The mAbs were tested at a fixed concentration (100 μg/ml) in the luciferase based neutralization assay using HOS-CD4.R5 as target cells.

HIV-1 isolates = assay: Neutralization of HIV-1 isolates (TZMbl-based or HOS-based assay, not specified); assay type: cell-based
Excerpt: FIG. 5. Epitope mapping of V3-specific mAbs by linear and circular peptide scanning. (A) Eight gp120-specific mAbs were mapped with linear and cyclic peptides to the V3 region. Shown is the HIV-1 isolate used for the mapping, the minimal epitope, the binding breadth expressed as number of recombinant Env proteins out of the 16 tested, and the fraction of isolates neutralized in the HOS and TZMbl-based neutralization assays, respectively. (B) Alignment of the region corresponding to the epitope recognized by mAb HGN194 in 44 HIV-1 isolates. Co-receptor binding residues are bold. Highlighted in grey are the isolates neutralized by HGN194 either in the TZMbl-based or in the HOS-based assays. […]
To measure the neutralization activity of the isolated mAbs, luciferase-encoding virions pseudotyped with the desired HIV-1 Env proteins were used in a single-cycle infectivity assay, as previously described (Gorny M K, et al. (2002) J Virol 76: 9035-9045). […] The cells were then lysed with Britelite reagent (Perkin-Elmer) and the relative light units in the cell lysates were determined on a luminometer microplate reader (Veritas, Turner Biosystems). […]

gp120 binding to sCD4 = conditions: inhibition of sCD4 binding
Description: Shown is mean±SD of triplicates.
The ability of mAbs to inhibit binding of sCD4 to gp120 or gp140 was evaluated by ELISA. Serial dilutions of mAbs were pre-incubated with gp120 (or gp140) and added to plates pre-coated with sCD4. After 1 h plates were washed and incubated with sheep polyclonal antibody D7324 (Aalto Bio-Reagents) followed by washing, incubation with AP-conjugated rabbit anti-sheep IgG antibody (Abcam, Cambridge, UK), extensive washing and detection using p-NPP (Sigma) as substrate.

B1: HGN194: human mAb binding the V3 crown of gp120; VH SEQ ID NO: 45, VL SEQ ID NO: 46 (antibody, listed as Homo sapiens, V domains shown)
VH: EVQLVQSGAEVKKPGESLKISCYGSGYNFNDYWIGWVRQMPGKGLEWMGMIYPDDSDTKYSAAFEGQVTLSADKSISTAYLQWTSLRASDTATYYCARLDGDYADFDSWGQGTLVTVSS
VL: QSVLTQPPSVSAAPGQKVTISCSGTNSNLGDKFVSWYQQLPGTAPRLLIYDNDKRPSGIPDRFSGSKSGASATLAITGLQTGDEADYYCGTWDNSLSALFGGGTKLTVL
gp120; inhibition of biotinylated mAb 2G12 binding to immobilized gp120
  Cross-competition with: 2G12: − (−, <50% inhibition)
gp120; inhibition of biotinylated mAb HGA9 binding to immobilized gp120
  Cross-competition with: HGA9: + (+,90-100% inhibition)
gp120; inhibition of biotinylated mAb HJ16 binding to immobilized gp120
  Cross-competition with: HJ16: − (−, <50% inhibition)
gp120; inhibition of biotinylated mAb HR10 binding to immobilized gp120
  Cross-competition with: HR10: + (+,90-100% inhibition)
gp120; inhibition of biotinylated mAb b12 binding to immobilized gp120
  Cross-competition with: b12: − (−, <50% inhibition)
[1]; All (92)
  Percentage of HIV-1 isolates neutralized: 21%
[1]; TZM-bl based assay, isolates neutralized/isolates tested
  Neutralization TZM-bl (number of isolates neutralized): 19/92
[1]; Tier 1 (10)
  Percentage of HIV-1 isolates neutralized: 100%
[1]; Tier 1 + Tier 2, Clade A (8)
  Percentage of HIV-1 isolates neutralized: 38%
[1]; Tier 1 + Tier 2, Clade AD (1)
  Percentage of HIV-1 isolates neutralized: 0%
[1]; Tier 1 + Tier 2, Clade AG (16)
  Percentage of HIV-1 isolates neutralized: 0%
[1]; Tier 1 + Tier 2, Clade B (29)
  Percentage of HIV-1 isolates neutralized: 24%
[1]; Tier 1 + Tier 2, Clade BC (11)
  Percentage of HIV-1 isolates neutralized: 0%
[1]; Tier 1 + Tier 2, Clade C (26)
  Percentage of HIV-1 isolates neutralized: 23%
[1]; Tier 1 + Tier 2, Clade G (1)
  Percentage of HIV-1 isolates neutralized: 0%
[1]; Tier 2 (82)
  Percentage of HIV-1 isolates neutralized: 11%
[1]; Tier 2, Clade A (5)
  Percentage of HIV-1 isolates neutralized: 20%
[1]; Tier 2, Clade AD (1)
  Percentage of HIV-1 isolates neutralized: 0%
[1]; Tier 2, Clade AG (16)
  Percentage of HIV-1 isolates neutralized: 0%
[1]; Tier 2, Clade B (24)
  Percentage of HIV-1 isolates neutralized: 8%
[1]; Tier 2, Clade BC (11)
  Percentage of HIV-1 isolates neutralized: 0%
[1]; Tier 2, Clade C (24)
  Percentage of HIV-1 isolates neutralized: 17%
[1]; Tier 2, Clade G (1)
  Percentage of HIV-1 isolates neutralized: 0%
[1]; neutralized/tested
  pseudoviruses neutralized in the TZM-bl based assay: 19/92
[2]
  efficacy in macaques: complete protection
[3]; HOS-based assay, isolates neutralized/isolates tested
  Neutralization HOS (number of isolates neutralized): 11/20
[3]; mAb at fixed concentration 100 μg/ml
  pseudoviruses neutralized out of the 20 pseudoviruses: 11
[3]; neutralized/tested
  pseudoviruses neutralized in the HOS-based assay: 11/20
HIV-1 isolates; isolate 93MW965.26
  IC50: < 0.02 mg/L
HIV-1 isolates; isolates Du422.1, ZM197M.PB7 and Du172.17
  neutralization: not neutralized
gp120 binding to sCD4
  Cross-competition with: sCD4: − (−, <50% inhibition)
